Experiments:
[1] = target: T1, recombinant human TFPI (tissue factor pathway inhibitor) (human, UniProt P10646 29-304); assay: cell-based or functional assay
[2] = target: T1, recombinant human TFPI (tissue factor …); assay: cell-based or functional assay; remark: listed apart in the source
[3] = target: T1, recombinant human TFPI (tissue factor …); assay: cell-based or functional assay; remark: listed apart in the source
[4] = target: T1, recombinant human TFPI (tissue factor …); assay: SPR, Biacore T-200; TFPI immobilised on CM5 chip, IgG as analyte
Protocol: 10 mM of glycine-HCl (pH 1.5) was run at a flow rate of 30 μL/min for 30 seconds, thereby inducing the dissociation of the antibody associated with the TFPI. The affinity in terms of kinetic rate constants (Kₒₙ and Koff) and equilibrium dissociation constant

[5] = target: T1, recombinant human TFPI (tissue factor …); assay: yeast-display scFv, FACS with biotinylated TFPI
Protocol: The finally amplified single colonies were collected from the yeast display library, and then cultured in SD medium at 30° C. at 200 rpm for 12 hours. Then, the medium was replaced with SG medium, and the cells were cultured at 25° C. at 200 rpm for 12 hours or more, thereby expressing the antibody on the yeast surface. Next, the yeast cells recovered by centrifugation were washed with PBSF (1% BSA containing PBS) buffer, resuspended in 50 μl of PBSF buffer, and then incubated with a biotin-conjugated recombinant human TFPI protein and anti-c-myc mouse antibody (CAT. No. M4439, Sigma) at room temperature for 30 minutes. The incubated yeast cells were washed with PBSF, resuspended in 50 μl of PBSF buffer, and then incubated with FITC-conjugated anti-mouse antibody (CAT. No. F0257, Sigma) and PE-conjugated streptavidin on ice under a light-shielded condition for 15 minutes. Next, the cells were washed with PBSF buffer, resuspended in 500 μl of PBSF buffer, and then clones showing high values in the FITC and PE wavelength ranges were selected by FACS, thereby obtaining individual clones.

B1: clone 308-2 (antibody, V domains shown)
VH: EVQLVESGGGLVKPGGSLRLSCAASGFTFSSYAMNWVRQAPGKGLEWVSTITTGGSYTYYADSVQGRFTISRDNAKNSLYLQMNSLRAEDTAVYYCARQDGNFLMDYWGQGTLVTVSS
VL: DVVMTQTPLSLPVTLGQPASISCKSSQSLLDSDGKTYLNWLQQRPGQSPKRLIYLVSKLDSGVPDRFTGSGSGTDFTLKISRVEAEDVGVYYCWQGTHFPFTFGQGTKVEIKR
[1]
  TFPI inhibitory activity, FXa activity assay, Ab 10 nM: 72%
  TFPI inhibitory activity, FXa activity assay, Ab 40 nM: 85%
  TFPI inhibitory activity, TF/FVIIa/FXa complex assay, Ab 50 nM: 100%
  TFPI inhibitory activity, TF/FVIIa/FXa complex assay, Ab 100 nM: 100%
[2]
  FXa assay % of FXa alone, 0.625 nM Ab, 10 nM TFPI: 5%
  FXa assay % of FXa alone, 2.5 nM Ab, 10 nM TFPI: 8%
  FXa assay OD, 0.625 nM Ab, 10 nM TFPI: 0.053 OD
  FXa assay OD, 2.5 nM Ab, 10 nM TFPI: 0.078 OD
  FXa assay OD, 10 nM Ab, 10 nM TFPI: 0.71 OD
  FXa assay OD, 40 nM Ab, 10 nM TFPI: 0.832 OD
[3]
  TF/FVIIa/FXa assay % of 0 nM TFPI, 12.5 nM Ab, 50 nM TFPI: 18.5%
  TF/FVIIa/FXa assay % of 0 nM TFPI, 50 nM Ab, 50 nM TFPI: 102%
  TF/FVIIa/FXa assay % of 0 nM TFPI, 100 nM Ab, 50 nM TFPI: 110%
  TF/FVIIa/FXa assay OD, 12.5 nM Ab, 50 nM TFPI: 0.148 OD
  TF/FVIIa/FXa assay OD, 25 nM Ab, 50 nM TFPI: 0.303 OD
  TF/FVIIa/FXa assay OD, 50 nM Ab, 50 nM TFPI: 0.816 OD
  TF/FVIIa/FXa assay OD, 100 nM Ab, 50 nM TFPI: 0.88 OD
[4]
  Kd: 33 pM

B2: clone 1208 (antibody, V domains shown)
VH: EVQLVESGGGLVKPGGSLRLSCAASGFTFSSYAMNWVRQAPGKGLEWVSTITTGGSHTYYADSVEGRFTISRDNAKNSLYLQMNSLRAEDTAVYYCARQDGHFLMDYWGQGTLVTVSS
VL: DVVMTQTPLSLPVTLGQPASISCKSSQSLLDVDGKTYLNWLQQRPGQSPKRLIYLVSKLDSGVPDRFTGSGSGTDFTLKISRVEAEDVGVYYCWQGTYLPFTFGQGTKVEIKR
notes: scFv on yeast at selection; human IgG4/kappa IgG as purified
[5]
  binding result: binds

B3: clone 1223 (antibody, V domains shown)
VH: EVQLVESGGGLVKPGGSLRLSCAASGFTFSSYAMNWVRQAPGKGLEWVSTITTGGSYTYYADSVEGRFTISRDNAKNSLYLQMNSLRAEDTAVYYCARQDGHFLMDYWGQGTLVTVSS
VL: DVVMTQTPLSLPVTLGQPASISCKSSQSLLDIDGKTYLNWLQQRPGQSPKRLIYLVSKLDSGVPDRFTGSGSGTDFTLKISRVEAEDVGVYYCWQGTHFPFTFGQGTKVEIKR
notes: as for B2
[5]
  binding result: binds

B4: clone 1232 (antibody, V domains shown)
VH: EVQLVESGGGLVKPGGSLRLSCAASGFTFSSYAMNWVRQAPGKGLEWVSTITTGGSYTYYADSVDGRFTISRDNAKNSLYLQMNSLRAEDTAVYYCARQDGHFLMDYWGQGTLVTVSS
VL: DVVMTQTPLSLPVTLGQPASISCKSSQSLLDVDGKTYLNWLQQRPGQSPKRLIYLVSKLDSGVPDRFTGSGSGTDFTLKISRVEAEDVGVYYCWQGTHFPFTFGQGTKVEIKR
notes: as for B2
[5]
  binding result: binds

B5: clone 1243 (antibody, V domains shown)
VH: EVQLVESGGGLVKPGGSLRLSCAASGFTFSSYAMNWVRQAPGKGLEWVSTITTGGSHTYYADSVHGRFTISRDNAKNSLYLQMNSLRAEDTAVYYCARQDGHFLMDYWGQGTLVTVSS
VL: DVVMTQTPLSLPVTLGQPASISCKSSQSLLDIDGKTYLNWLQQRPGQSPKRLIYLVSKLDSGVPDRFTGSGSGTDFTLKISRVEAEDVGVYYCWQGTHFPFTFGQGTKVEIKR
notes: as for B2
[5]
  binding result: binds

B6: clone 1248 (antibody, V domains shown)
VH: EVQLVESGGGLVKPGGSLRLSCAASGFTFSSYAMNWVRQAPGKGLEWVSTITTGGSHTYYADSVDGRFTISRDNAKNSLYLQMNSLRAEDTAVYYCARQDGHFLMDYWGQGTLVTVSS
VL: DVVMTQTPLSLPVTLGQPASISCKSSQSLLDIDGKTYLNWLQQRPGQSPKRLIYLVSKLDSGVPDRFTGSGSGTDFTLKISRVEAEDVGVYYCWQGTHFPFTFGQGTKVEIKR
notes: as for B2
[5]
  binding result: binds

B7: clone 4011 (antibody, V domains shown)
VH: EVQLVESGGGLVKPGGSLRLSCAASGFTFYSYAMNWVRQAPGKGLEWVSTITTGGSHTYYADSVEGRFTISRDNAKNSLYLQMNSLRAEDTAVYYCARQDGNFLMDYWGQGTLVTVSS
VL: DVVMTQTPLSLPVTLGQPASISCKSSQSLLDVDGKTYLNWLQQRPGQSPKRLIYLVSKLDSGVPDRFTGSGSGTDFTLKISRVEAEDVGVYYCWQGTHLPFTFGQGTKVEIKR
notes: as for B2
[5]
  binding result: binds

B8: clone 4034 (antibody, V domains shown)
VH: EVQLVESGGGLVKPGGSLRLSCAASGFTFSSYAMNWVRQAPGKGLEWVSTITTGGSHTYYADSVEGRFTISRDNAKNSLYLQMNSLRAEDTAVYYCARQDGYFLMDYWGQGTLVTVSS
VL: DVVMTQTPLSLPVTLGQPASISCKSSQSLLDIDGKTYLNWLQQRPGQSPKRLIYLVSKLDSGVPDRFTGSGSGTDFTLKISRVEAEDVGVYYCWQGTHFPFTFGQGTKVEIKR
notes: as for B2
[5]
  binding result: binds

B9: clone 4041 (antibody, V domains shown)
VH: EVQLVESGGGLVKPGGSLRLSCAASGFTFSSYAMSWVRQAPGKGLEWVSTITTGGSHTYYADSVEGRFTISRDNAKNSLYLQMNSLRAEDTAVYYCARQDGYFLMDYWGQGTLVTVSS
VL: DVVMTQTPLSLPVTLGQPASISCKSSQSLLDVDGKTYLNWLQQRPGQSPKRLIYLVSKLDSGVPDRFTGSGSGTDFTLKISRVEAEDVGVYYCWQGTHFPFTFGQGTKVEIKR
notes: as for B2
[5]
  binding result: binds

B10: clone T308 (antibody, human IgG4, V domains shown)
VH: EVKLVESGGGLVKPGGSLKLSCAASGFTFSNYPMSWVRQTPEKRLEWVATISNSGSYTYYPDSVKGRFTISRDNAKNTLYLQMNSLRSEDTAMYYCARQVYGNYEDFDYWGQGTTLTVSS
VL: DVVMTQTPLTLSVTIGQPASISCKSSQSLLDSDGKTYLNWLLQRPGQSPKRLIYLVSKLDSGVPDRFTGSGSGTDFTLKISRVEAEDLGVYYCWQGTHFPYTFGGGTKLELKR
[1]
  effect of inhibiting TFPI, FXa activity assay, Ab 10 nM: 89%
[4]
  Kd: 9.4 pM

B11: clone 4278 (antibody, V domains shown)
VH: EVQLVESGGGLVKPGGSLRLSCAASGFTFSKYAMNWFRQAPGKGLEWVSTITLGGSYTYYADSVDGRFTISRDNAKNSLYLQMNSLRAEDTAVYYCARQYLDGNFLMDYWGQGTLVTVSS
VL: DVVMTQTPLSLPVTLGQPASISCKSSQSLLDIDGKTYLNWLQQRPGQSPKRLIYLVSKLDSGVPDRFTGSGSGTDFTLKISRVEAEDVGVYYCWQGTHFPFTFGQGTKVEIKR
notes: as for B2
[5]
  binding result: binds

B12: clone 14 (antibody, V domains shown)
VH: EVQLVESGGGLVKPGGSLRLSCAASGFTFSKYAMNWFRQAPGKGLEWVSTITLGGSYTYYADSVDGRFTISRDNAKNSLYLQMNSLRAEDTAVYYCARQYLDGNFLMDYWGQGTLVTVSS
VL: DVVMTQTPLSLPVTLGQPASISCKSSPSLLDSDGKTYLNWLQQRPGQSPKRLIYLVSKLDSGVPDRFTGSGSGTDFTLKISRVEAEDVGVYYCWQGTYFPFTFGQGTKVEIKR
notes: human IgG4/kappa IgG as purified
[5]
  binding result: binds

B13: clone 15 (antibody, V domains shown)
VH: EVQLVESGGGLVKPGGSLRLSCAASGFTFSKYAMNWFRQAPGKGLEWVSTITTGGSYTYYADSVEGRFTISRDNAKNSLYLQMNSLRAEDTAVYYCARQHPYGNFLMDYWGQGTLVTVSS
VL: DVVMTQTPLSLPVTLGQPASISCKSSPSLLDSDGKTYLNWLQQRPGQSPKRLIYLVSKLDSGVPDRFTGSGSGTDFTLKISRVEAEDVGVYYCWQGFYFPFTFGQGTKVEIKR
notes: as for B12
[5]
  binding result: binds

Reference: patent US20180030151A1 (MOGAM INSTITUTE FOR BIOMEDICAL RESEARCH, published 2018)
